Data on two molecules can be found in patent publication EP1788086A1 (HUMAN GENOME SCIENCES, INC., dated 2007).

The target in assay [1] is T1, DR5 (expression construct in 293 cells, precipitated with Flag M2 antibody gel) (human, UniProt O14763 52-440).
T1 construct: also called Death Domain Containing Receptor 5; HLYBX88; not shown: Flag tag implied by immunoprecipitation with Flag M2 gel
The experiment in a line: co-immunoprecipitation from co-transfected 293 cell lysates with Flag M2 antibody gel; immunoblot with HRP-conjugated antibody to myc.

The target in assay [2] is T1, DR5 (expression construct in 293 cells, …). The experiment in a line: co-immunoprecipitation from co-transfected 293 cell lysates with Flag M2 antibody gel; immunoblot with polyclonal antibody to FADD. In general terms: A western blot detects proteins with antibodies after separation by electrophoresis.

B1: myc-tagged TRADD (other, UniProt Q15628 1-312, looked up)
chain: MAAGQNGHEEWVGSAYLFVESSLDKVVLSDAYAHPQQKVAVYRALQAALAESGGSPDVLQMLKIHRSDPQLIVQLRFCGRQPCGRFLRAYREGALRAALQRSLAAALAQHSVPLQLELRAGAERLDALLADEERCLSCILAQQPDRLRDEELAELEDALRNLKCGSGARGGDGEVASAPLQPPVPSLSEVKPPPPPPPAQTFLFQGQPVVNRPLSLKDQQTFARSVGLKWRKVGRSLQRGCRALRDPALDSLAYEYEREGLYEQAFQLLRRFVQAEGRRATLQRLVEALEENELTSLAEDLLGLTDPNGGLA
notes: Detected with HRP-conjugated antibody to myc; also called myc-TRADD; not shown: myc tag
As to B1, the binding result in assay [1] is reported as “no binding”.

B2: FADD (other, UniProt Q13158 1-208, looked up)
chain: MDPFLVLLHSVSSSLSSSELTELKFLCLGRVGKRKLERVQSGLDLFSMLLEQNDLEPGHTELLRELLASLRRHDLLRRVDDFEAGAAAGAAPGEEDLCAAFNVICDNVGKDWRRLARQLKVSDTKIDSIEDRYPRNLTERVRESLRIWKNTEKENATVAHLVGALRSCQMNLVADLVQEVQQARDLQNRSGAMSPMSWNSDASTSEAS
notes: Detected with a polyclonal antibody to FADD; also called FADD/MORT1
Take B2: in assay [2], the binding result is recorded as “no binding”.
